Measurements reported in patent US20140322196A1 (priority 2011, published 2014).
Like-named read-outs stand apart in the source and are kept apart here.

B1: C-lobe: bovine lactoferrin C-lobe as named in the text, without saying which of the two fragments of Table 2 (protein)
chain: YTRVVWCAVGPEEQKKCQQWSQQSGQNVTCATASTTDDCIVLVLKGEADALNLDGGYIYTAGKCGLVPVLAENRKSSKHSSLDCVLRPTEGYLAVAVVKKANEGLTWNSLKDKKSCHTAVDRTAGWNIPMGLIVNQTGSCAFDEFFSQSCAPGADPKSRLCALCAGDDQGLDKCVPNSKEKYYGYTGAFRCLAEDVGDVAFVKNDTVWENTNGESTADWAKNLNREDFRLLCLDGTRKPVTEAQSCHLAVAPNHAVVSRSDRAAHVKQVLLHQQALFGKNGKNCPDKFCLFKSETKNLLFNDNTECLAKLGGRPTYEEYLGTEYVTAIANLKKCSTSPLLEACAFLTR
modifications: bovine lactoferrin C-lobe peptide
B2: bLf: Lactoferrin from bovine milk, purchased from Morinaga Milk Industries, deprived of endotoxin (protein, UniProt P24627 20-708, looked up)
Lactotransferrin: APRKNVRWCTISQPEWFKCRRWQWRMKKLGAPSITCVRRAFALECIRAIAEKKADAVTLDGGMVFEAGRDPYKLRPVAAEIYGTKESPQTHYYAVAVVKKGSNFQLDQLQGRKSCHTGLGRSAGWIIPMGILRPYLSWTESLEPLQGAVAKFFSASCVPCIDRQAYPNLCQLCKGEGENQCACSSREPYFGYSGAFKCLQDGAGDVAFVKETTVFENLPEKADRDQYELLCLNNSRAPVDAFKECHLAQVPSHAVVARSVDGKEDLIWKLLSKAQEKFGKNKSRSFQLFGSPPGQRDLLFKDSALGFLRIPSKVDSALYLGSRYLTTLKNLRETAEEVKARYTRVVWCAVGPEEQKKCQQWSQQSGQNVTCATASTTDDCIVLVLKGEADALNLDGGYIYTAGKCGLVPVLAENRKSSKHSSLDCVLRPTEGYLAVAVVKKANEGLTWNSLKDKKSCHTAVDRTAGWNIPMGLIVNQTGSCAFDEFFSQSCAPGADPKSRLCALCAGDDQGLDKCVPNSKEKYYGYTGAFRCLAEDVGDVAFVKNDTVWENTNGESTADWAKNLNREDFRLLCLDGTRKPVTEAQSCHLAVAPNHAVVSRSDRAAHVKQVLLHQQALFGKNGKNCPDKFCLFKSETKNLLFNDNTECLAKLGGRPTYEEYLGTEYVTAIANLKKCSTSPLLEACAFLTR

Columns and labels:
[1] = test system: Influenza A/H1N1 (A/Roma-ISS/2/08 and A/Parma/24/09) and A/H3N2 (A/Parma/05/06); format: cell-based, Influenza A virus
[2] = test system: all tested virus strains (Influenza A H1N1, H3N2, H5N1, H7N1)
[3] = test system: A/Parma/5/06 (Wisconsin-like) H3N2; format: cell-based, Influenza A virus
[4] = test system: A/Roma-ISS/2/08 (Brisbane-like) (oseltamivir-sensitive) H1N1; format: cell-based, Influenza A virus
[5] = test system: A/Turkey/Italy/2676/99 H7N1; format: cell-based, Influenza A virus
[6] = test system: Avian 29/05/06 inactivated vaccine H5N1; format: cell-based, Influenza A virus; details: Avian 29/05/06 H5N1 inactivated vaccine
[7] = test system: A/Wisconsin (67/05) inactivated subunits, vaccine H3N2; format: cell-based, Influenza A virus
[8] = test system: A/Solomon (3/06) inactivated subunits, vaccine H1N1; format: cell-based, Influenza A virus
[9] = test system: HA and NA surface antigens of Solomon (H1N1) and Wisconsin (H3N2) subunit vaccines; format: binding, Influenza A virus
[10] = test system: Influenza virus A/RomaISS/2/08; format: binding
[11] = test system: SW X-179A 1089/09 inactivated subunits, vaccine H1N1; format: cell-based, Influenza A virus
[12] = test system: A/PR/8/34 H1N1; format: cell-based, Influenza A virus

Row | Molecule | effect on virus replication / infection (in words) [1] | inhibition of viral hemagglutination (in words) [2] | HI titre [3] | HI titre [4] | HI titre [5] | HI titre [6] | HI titre [7] | HI titre [8] | bLf binding to viral envelope proteins (in words) [9] | virus binding to bLf ([10]; pH 4) | virus binding to bLf ([10]; pH 5) | virus binding to bLf ([10]; pH 6) | HI titre [11] | HI titre [12] | substance-induced agglutination or erythrocyte lysis ([2]; turkey red blood cells, in the hemagglutination assays)
1 | B1 | highly inhibited | marked inhibition of viral hemagglutination |  |  |  |  |  |  |  |  |  |  |  |  | 
2 | B2 | markedly inhibited |  | 3 nM | 6 nM | 93.1 fM | 2.9 pM | 0.3 pM | 5 pM | binds to a viral protein of apparent molecular mass of 28 kDa | 47.2+/−1.4% | 52.9+/−9.7% | 34.1+/−4.1% | 46.5 fM | 3 nM | Neither bLf-induced agglutination nor visual evidence of erythrocyte lysis was observed
